Test results published in patent US11491212.

B1: FIXa-Y155F/R338E/R403E/E410N (mature FIX numbering) (protein)
chain 1: not shown
chain 2: not shown
B2: FIXa-K293A/R338A/R403A (mature FIX numbering) (protein)
chain 1: not shown
chain 2: not shown
B3: FIXa-K228N/K247N/N249S/R318Y/T343R/R403E/E410N (protein)
chain 1: not shown
chain 2: not shown
B4: FIXa-R318Y/R338E/R403E (mature FIX numbering) (protein)
chain 1: not shown
chain 2: not shown
B5: FIXa-K228N/247N/N249S/R318Y/R338E/T343R/E410N (protein)
chain 1: not shown
chain 2: not shown
B6: FIXa-D203N/F205T/K228N (mature FIX numbering) (protein)
chain 1: not shown
chain 2: not shown
B7: FIXa-D203N/F205T/E410N (mature FIX numbering) (protein)
chain 1: not shown
chain 2: not shown
B8: FIXa-K293E/R338E/R403E (mature FIX numbering) (protein)
chain 1: not shown
chain 2: not shown
B9: FIXa-Y155F/R318Y/R338E/R403E (mature FIX numbering) (protein)
chain 1: not shown
chain 2: not shown
B10: FIXa-R338E/R403E/E410N (mature FIX numbering) (protein)
chain 1: not shown
chain 2: not shown

The proteins below were run against Factor X (FX), P00742.
Factor X (FX), P00742, sequence (P00742 whole entry, looked up): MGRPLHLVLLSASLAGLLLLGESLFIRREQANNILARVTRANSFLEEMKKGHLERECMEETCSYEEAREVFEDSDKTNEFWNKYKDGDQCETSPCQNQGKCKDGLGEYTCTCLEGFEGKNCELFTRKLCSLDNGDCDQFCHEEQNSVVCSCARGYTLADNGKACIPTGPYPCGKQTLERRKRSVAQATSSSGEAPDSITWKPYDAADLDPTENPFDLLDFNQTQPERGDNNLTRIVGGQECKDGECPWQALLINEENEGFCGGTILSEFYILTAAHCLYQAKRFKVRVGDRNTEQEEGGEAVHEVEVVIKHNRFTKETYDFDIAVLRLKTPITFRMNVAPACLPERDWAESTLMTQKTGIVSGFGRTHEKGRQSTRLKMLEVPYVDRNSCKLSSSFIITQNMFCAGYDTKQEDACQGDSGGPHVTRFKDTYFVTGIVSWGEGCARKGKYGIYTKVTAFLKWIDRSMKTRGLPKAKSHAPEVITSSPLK
B1 was tested, and the “% of WT kcat/KM” value was 401% and the kcat/KM was 1.8e+08 M⁻¹ s⁻¹.
With B2 the “% of WT kcat/KM” value was 53%.
For B3, the KM (nM), FX activation by FIXa in the Xase complex (FVIIIa, PC/PS vesicles, Ca2+), indirect fluorogenic assay with Spectrafluor FXa was 125 nM.
In the case of B4, the “% of WT kcat/KM” value is reported as 134%.
B5 showed a KM (nM), FX activation by FIXa in the Xase complex (FVIIIa, PC/PS vesicles, Ca2+), indirect fluorogenic assay with Spectrafluor FXa of 38.1 nM.
B6 was tested, and the “% of WT kcat/KM” value was 30%.
For B7, the “% of WT kcat/KM” value was 91%.
With B8 the “% of WT kcat/KM” value was 36%.
B9 was tested, and the “% of WT kcat/KM” value was 189%.
For B10, the “% of WT kcat/KM” value was 411%.
